Several values for one entry are separate records, joined by “and”; a condition that tells them apart may be missing. Equal entries are not always repeated.
Legend:
[1] = target: human polyclonal IgG (Gammanorm) (human); assay: dynamic binding capacity; matrix C4, ligand 10.1 mg/ml
[2] = target: human polyclonal IgG (Gammanorm) (human); assay: dynamic binding capacity; matrix A33, ligand 9.4 mg/ml
[3] = target: human polyclonal IgG (Gammanorm) (human); assay: dynamic binding capacity; matrix A29, ligand 7.3 mg/ml
[4] = target: human polyclonal IgG (Gammanorm) (human); assay: dynamic binding capacity; matrix A40, ligand 11.0 mg/ml
[5] = target: human polyclonal IgG (Gammanorm) (human); assay: dynamic binding capacity; matrix A28, ligand 15.8 mg/ml
[6] = target: human polyclonal IgG (Gammanorm) (human); assay: dynamic binding capacity; matrix A29, ligand 11 mg/ml
[7] = target: human polyclonal IgG (Gammanorm) (human); assay: dynamic binding capacity; matrix A20, ligand 7.3 mg/ml
[8] = target: human polyclonal IgG (Gammanorm) (human); assay: dynamic binding capacity; matrix A39, ligand 10.48 mg/ml
[9] = target: human polyclonal IgG (Gammanorm) (human); assay: dynamic binding capacity; matrix A40, ligand 11.03 mg/ml
[10] = target: human polyclonal IgG (Gammanorm) (human); assay: dynamic binding capacity; matrix A65b, ligand 8.8 mg/ml
[11] = target: human polyclonal IgG (Gammanorm) (human); assay: dynamic binding capacity; ligand 16 mg/ml, before 1 M NaOH
[12] = target: human polyclonal IgG (Gammanorm) (human); assay: dynamic binding capacity; matrix C2, ligand 10.5 mg/ml
[13] = target: human polyclonal IgG (Gammanorm) (human); assay: dynamic binding capacity; matrix A33, ligand 7.33 mg/ml
[14] = target: human polyclonal IgG (Gammanorm) (human); assay: dynamic binding capacity; matrix A63a, ligand 6.1 mg/ml
[15] = target: human polyclonal IgG (Gammanorm) (human); assay: dynamic binding capacity; matrix A20, ligand […]
[16] = target: human polyclonal IgG (Gammanorm) (human); assay: dynamic binding capacity; matrix A39, ligand 7.0 mg/ml
[17] = target: human polyclonal IgG (Gammanorm) (human); assay: dynamic binding capacity; matrix C3, ligand […]; conditions: ligand content 5.9 mg/ml
[18] = target: human polyclonal IgG (Gammanorm) (human); assay: dynamic binding capacity; ligand 20 mg/ml, before 1 M NaOH
[19] = target: human polyclonal IgG (Gammanorm) (human); assay: dynamic binding capacity; matrix A63a, ligand 6.6 mg/ml
[20] = target: human polyclonal IgG (Gammanorm) (human); assay: dynamic binding capacity; matrix A38, ligand 7.45 mg/ml
[21] = target: human polyclonal IgG (Gammanorm) (human); assay: dynamic binding capacity; matrix A38, ligand 7.5 mg/ml
[22] = target: human polyclonal IgG (Gammanorm) (human); assay: dynamic binding capacity; matrix A18, ligand 13.4 mg/ml
[23] = target: human polyclonal IgG (Gammanorm) (human); assay: dynamic binding capacity; matrix A65a, ligand 13.6 mg/ml
[24] = target: human polyclonal IgG (Gammanorm) (human); assay: dynamic binding capacity; matrix A41, ligand 5.0 mg/ml
[25] = target: human polyclonal IgG (Gammanorm) (human); assay: dynamic binding capacity; matrix A27, ligand 7.5 mg/ml
[26] = target: human polyclonal IgG (Gammanorm) (human); assay: dynamic binding capacity; matrix A65b, ligand […]
[27] = target: human polyclonal IgG (Gammanorm) (human); assay: dynamic binding capacity; matrix H40, ligand 9.1 mg/ml
[28] = target: human polyclonal IgG (Gammanorm) (human); assay: dynamic binding capacity; matrix C4, ligand […]
[29] = target: human polyclonal IgG (Gammanorm) (human); assay: dynamic binding capacity; matrix A62a, ligand 9.7 mg/ml
[30] = target: human polyclonal IgG (Gammanorm) (human); assay: dynamic binding capacity; matrix I1, ligand 11.2 mg/ml
[31] = target: human polyclonal IgG (Gammanorm) (human); assay: dynamic binding capacity; matrix B5, ligand 9.6 mg/ml
[32] = target: human polyclonal IgG (Gammanorm) (human); assay: dynamic binding capacity; matrix A38, ligand 11.34 mg/ml

Zvar(Q9A, N11E, Q40V, A42K, N43A, L44I)4 (designed binder)
Qb10% 2.4 min [1]: 55 mg/mL | Qb10% 6 min [1]: 63 mg/mL | Qb10% 2.4 min [2]: 51 mg/mL | Qb10% 6 min [2]: 58 mg/mL | Qb10% 2.4 min [3]: 36.3 mg/mL | Qb10% 6 min [3]: 51.8 mg/mL | Qb10% 2.4 min [4]: 55 mg/mL | Qb10% 6 min [4]: 74 mg/mL | Qb10% 2.4 min [5]: 37 mg/mL | Qb10% 6 min [5]: 67 mg/mL | Qb10% 2.4 min [6]: 34.9 mg/mL | Qb10% 6 min [6]: 64.7 mg/mL | Qb10% 2.4 min [7]: 45 mg/mL and 45.1 mg/mL | Qb10% 6 min [7]: 57 mg/mL and 57.2 mg/mL | Qb10% 2.4 min [8]: 44.4 mg/mL | Qb10% 6 min [8]: 64.8 mg/mL | Qb10% 2.4 min [9]: 55 mg/mL | Qb10% 6 min [9]: 73.8 mg/mL | Qb10% 2.4 min [10]: 49 mg/mL | Qb10% 6 min [10]: 56 mg/mL | Qb10%, 6 min, before incubation [11]: 73 mg/mL | Qb10% 2.4 min [12]: 42 mg/mL | Qb10% 6 min [12]: 57 mg/mL | Qb10% 2.4 min [13]: 48.7 mg/mL | Qb10% 6 min [13]: 55.8 mg/mL | Qb10% 2.4 min [14]: 39 mg/mL | Qb10% 6 min [14]: 44 mg/mL | Qb10% 2.4 min [15]: 49 mg/mL | Qb10% 6 min [15]: 67 mg/mL | Qb10% 2.4 min [16]: 42 mg/mL | Qb10% 6 min [16]: 55 mg/mL | Qb10% 2.4 min [17]: 44 mg/mL | Qb10% 6 min [17]: 52 mg/mL | Qb10%, 6 min, before incubation [18]: 73 mg/mL | Qb10% 2.4 min [19]: 40 mg/mL | Qb10% 6 min [19]: 44 mg/mL | Qb10% 2.4 min [20]: 44.4 mg/mL | Qb10% 6 min [20]: 58.2 mg/mL | Qb10% 2.4 min [21]: 44 mg/mL | Qb10% 6 min [21]: 58 mg/mL | Qb10% 6 min [22]: 63 mg/mL | Qb10% 2.4 min [23]: 52 mg/mL | Qb10% 6 min [23]: 61 mg/mL | Qb10% 2.4 min [24]: 35.6 mg/mL | Qb10% 6 min [24]: 46 mg/mL | Qb10% 2.4 min [25]: 29.2 mg/mL | Qb10% 6 min [25]: 48.7 mg/mL | Qb10% 2.4 min [26]: 42 mg/mL | Qb10% 6 min [26]: 46 mg/mL | Qb10% 2.4 min [27]: 52 mg/mL | Qb10% 6 min [27]: 67 mg/mL | Qb10% 2.4 min [28]: 59 mg/mL | Qb10% 6 min [28]: 67 mg/mL | Qb10% 2.4 min [29]: 48 mg/mL | Qb10% 6 min [29]: 60 mg/mL | Qb10% 2.4 min [30]: 57 mg/mL | Qb10% 6 min [30]: 68 mg/mL | Qb10% 2.4 min [31]: 45 mg/mL | Qb10% 6 min [31]: 47 mg/mL | Qb10% 2.4 min [32]: 48.1 mg/mL | Qb10% 6 min [32]: 72.8 mg/mL
